For assay [1], the target named is T1, Phl p 7 (with a C-terminal tryptophan residue, biotinylated) (Phleum pratense (timothy grass), UniProt O82040, biotin (EZ-Link Maleimide-PEG2-Biotin)).
T1 construct: Phl p 7, polcalcin family 2-EF hand protein of timothy grass (Phleum pratense) pollen; C-terminal tryptophan residue added to aid spectrophotometric detection; also called biotinylated Phl p 7; timothy grass pollen allergen Phl p 7; source: E. coli BL21(DE3), purified (HisTrap FF Crude, SEC Superdex 75)
T1 sequence (O82040 whole entry, looked up): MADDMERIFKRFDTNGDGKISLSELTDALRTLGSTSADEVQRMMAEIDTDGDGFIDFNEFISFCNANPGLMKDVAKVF
Briefly: SPR; biotinylated Phl p 7 immobilised on an SA chip, 50 nM HAPPID1 Fab captured by it, aδNb072 flowed over (200 nM to 3 nM); 25 °C, 10 mM HEPES pH 7.4, 150 mM NaCl, 0.05% P20, 5 mM CaCl2. Particulars: both partners purified.

Assay [2] addresses anti-IgD nanobody 072 (not stated (a llama and an alpaca were immunised)). Nature of the assay: SPR; aδNb072 (100 nM) captured by an anti-His-tag antibody on a CM5 chip; Fab flowed over, two-fold dilution series 200 nM to 3 nM; Biacore T200, 25 °C, 10 mM HEPES pH 7.4, 150 mM NaCl, 0.05% P20; KD from koff/kon. On the technique in general: Surface plasmon resonance follows binding to a sensor surface in real time, without labels.

anti-IgD nanobody 072 (not stated (a llama and an alpaca were immunised)), sequence (heavy, as listed by the source): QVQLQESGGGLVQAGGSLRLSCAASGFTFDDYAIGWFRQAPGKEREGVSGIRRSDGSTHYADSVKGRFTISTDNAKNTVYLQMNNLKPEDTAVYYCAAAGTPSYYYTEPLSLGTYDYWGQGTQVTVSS

B1: HAPPID1 Fab with a C-terminal glycine4-serine linker and SpyTag on the heavy chain (Fab, V domains shown)
VH: QVQLVQSGAEVRNPGASVKVSCKASGYTFTSYAIHWVRQAPGHRLEWVGRINTDNGNTKYSQKFHGRVALSRDTSASTTYMDLSSLNSEDTAVYYCARAFYYSSGVMFDSWGQGALVTVSS
VL: QSALTQPPSVSGAPGQRVSISCTGGSSNFGAGYDVHWYQQLPATAPKLLIYGNNNRPSGVPDRFSGSKSGTSASLAITGLQAEDEGDYFCQSFDTSLSGWIFGGGTKLTVL
notes: as the heavy chain of m2 (VH of clone 102.1F10 with human Cδ1); as the light chain of m2 (lambda light chain of the HAPPI1 antibodies); Derived from pVITRO1-HAPPID1; also called SpyTagged HAPPID1 Fab; not shown: glycine4-serine linker and SpyTag, C-terminal, kept
B1: the binding result in assay [1] is on record as “binds”. Besides, in assay [2], the equilibrium dissociation constant (Kd) (commonly the free concentration of one partner at which half of the binding sites on the other are occupied at equilibrium, for simple one-to-one binding) came to 1.4 nM; the dissociation rate constant (koff) (as a rule, a measure of how fast the partners let go of each other) came out at 0.000822 s⁻¹; the kon (as a rule, a measure of how fast the partners come together) is 586000 M⁻¹ s⁻¹.

B2: HAPPIE1 Fab (SpyTagged) (Fab, V domains shown)
VH: QVQLVQSGAEVRNPGASVKVSCKASGYTFTSYAIHWVRQAPGHRLEWVGRINTDNGNTKYSQKFHGRVALSRDTSASTTYMDLSSLNSEDTAVYYCARAFYYSSGVMFDSWGQGALVTVSS
VL: QSALTQPPSVSGAPGQRVSISCTGGSSNFGAGYDVHWYQQLPATAPKLLIYGNNNRPSGVPDRFSGSKSGTSASLAITGLQAEDEGDYFCQSFDTSLSGWIFGGGTKLTVL
In assay [2], B2 showed a dissociation constant Kd of 3.64 nM, a koff of 0.000829 s⁻¹ and a kon of 228000 M⁻¹ s⁻¹.

Values taken from article PMC10660547 (Antibodies, 2023).
